Experiment in all cases: BIACORE SPR
Assay [1] has as its target T1, Variant BAv8-10-Ig (human, UniProt P01859-1 99-326 = IgG part).
T1 construct: domain: Fc; also called Variant 8-10-Ig; BAv8-10-PIg18
The method, then:
(§1) For human BAFF, cynomolgus monkey APRIL, and mouse APRIL measurements, mouse monoclonal antibody (IgG1) anti-FLAG M2 (Sigma Aldrich, Cat. No. F1804) was immobilized on CM3 sensor chips (GE Healthcare, Cat. No. BR-1005-41) according to the manufacturer's protocol. Antibody was diluted to 30 μg/ml in immobilization buffer (10 mM pH 5±0.20; GE Healthcare; GE Healthcare, Catalog No. BR-1003-51). […] Unreacted sites were quenched with 35 μl of 1M ethanolamine-HCl, pH 8.5 (GE Healthcare, GE Healthcare, Cat. No. BR-1000-50). This procedure typically yielded 3,000-4,000 response units (RU) of coupled antibody.
(§2) The fusion polypeptides were diluted in HBS-EP buffer and flowed over ligand-coated sensor chips. The variant BCMA-Ig and surrogate control fusion proteins were injected at three concentrations (1.5 nM, 15 nM, and 150 nM at 30 μl/min for 2 minutes per association phase) in a single binding cycle, followed by a 20 minute incubation with HBS-EP buffer containing no protein at the same flow rate. A similar protocol was followed for Z-TACI-Ig, except that the injections were at 4.5 nM, 45 nM, and 450 nM.
Using available information from the structures and published literature, several residues in BAv8-10 were targeted for substitution with conserved as well as non-conserved residues and their effect on BAFF and APRIL binding was assessed by BIACORE.

The next assay concerns the target T2, BAv66-Ig (human, UniProt P01859-1 99-326 = IgG part).
T2 construct: domain: Fc; also called Variant BAv66-Ig
Excerpt: as §1, with “The standard kinetic assay measures binding kinetics of trimeric ligand (e.g., human BAFF, cynomolgus monkey APRIL, mouse BAFF, or mouse APRIL) coated on sensor chips and dimeric analytes (e.g., variant BCMA-Ig fusion proteins) in the mobile phase. […] For” for “For”
as §2
(§3) The analyses described above were performed on protein preparations of representative variant BCMA ECD-Ig fusion polypeptides, as well as the Z-TACI-Ig and [S40G]huBCMA ECD-Ig control fusion polypeptides, and the data is presented in Table 1.

The target of a further assay is T3, Variant BAv1-12-Ig (human, UniProt P01859-1 99-326 = IgG part).
T3 construct: domain: Fc; also called Variant 1-12-Ig
T3 sequence (P01859 other isoform, or with tags, fused parts or gaps mutant limits assumed): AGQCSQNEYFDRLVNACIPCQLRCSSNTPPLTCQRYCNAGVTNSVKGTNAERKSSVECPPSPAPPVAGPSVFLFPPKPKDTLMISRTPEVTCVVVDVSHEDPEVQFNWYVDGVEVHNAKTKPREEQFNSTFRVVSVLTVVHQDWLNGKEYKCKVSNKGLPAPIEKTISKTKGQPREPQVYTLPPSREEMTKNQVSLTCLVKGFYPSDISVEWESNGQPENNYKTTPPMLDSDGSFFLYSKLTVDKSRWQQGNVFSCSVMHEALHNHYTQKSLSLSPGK
Excerpt: as §1, with “The standard kinetic assay measures binding kinetics of trimeric ligand (e.g., human BAFF, cynomolgus monkey APRIL, mouse BAFF, or mouse APRIL) coated on sensor chips and dimeric analytes (e.g., variant BCMA-Ig fusion proteins) in the mobile phase. […] For” for “For”
as §2, §3

The target in a further assay is T4, Variant BAv9-5-Ig (human, UniProt P01859-1 99-326 = IgG part).
T4 construct: domain: Fc; also called Variant 9-5-Ig; BAv9-5-PIg18
T4 sequence (P01859 other isoform, or with tags, fused parts or gaps mutant limits assumed): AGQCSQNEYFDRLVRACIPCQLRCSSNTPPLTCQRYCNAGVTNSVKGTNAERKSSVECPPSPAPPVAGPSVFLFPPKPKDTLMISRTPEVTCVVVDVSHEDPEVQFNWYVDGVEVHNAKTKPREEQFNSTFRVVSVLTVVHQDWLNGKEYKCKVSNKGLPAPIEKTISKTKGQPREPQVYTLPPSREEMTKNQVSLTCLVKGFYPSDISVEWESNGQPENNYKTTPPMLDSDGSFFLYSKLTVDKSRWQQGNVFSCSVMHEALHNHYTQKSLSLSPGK
Excerpt: as §1, with “The standard kinetic assay measures binding kinetics of trimeric ligand (e.g., human BAFF, cynomolgus monkey APRIL, mouse BAFF, or mouse APRIL) coated on sensor chips and dimeric analytes (e.g., variant BCMA-Ig fusion proteins) in the mobile phase. […] For” for “For”
as §2, §3

The target of assay [2] is T1, Variant BAv8-10-Ig.
Excerpt: as §1, with “The standard kinetic assay measures binding kinetics of trimeric ligand (e.g., human BAFF, cynomolgus monkey APRIL, mouse BAFF, or mouse APRIL) coated on sensor chips and dimeric analytes (e.g., variant BCMA-Ig fusion proteins) in the mobile phase. […] For” for “For”
as §2, §3
This is another data set of the same source.

The target of another assay is T5, Variant BAv3-10-Ig (human, UniProt P01859-1 99-326 = IgG part).
T5 construct: domain: Fc; also called Variant 3-10-Ig; BAv3-10-PIg18
T5 sequence (P01859 other isoform, or with tags, fused parts or gaps mutant limits assumed): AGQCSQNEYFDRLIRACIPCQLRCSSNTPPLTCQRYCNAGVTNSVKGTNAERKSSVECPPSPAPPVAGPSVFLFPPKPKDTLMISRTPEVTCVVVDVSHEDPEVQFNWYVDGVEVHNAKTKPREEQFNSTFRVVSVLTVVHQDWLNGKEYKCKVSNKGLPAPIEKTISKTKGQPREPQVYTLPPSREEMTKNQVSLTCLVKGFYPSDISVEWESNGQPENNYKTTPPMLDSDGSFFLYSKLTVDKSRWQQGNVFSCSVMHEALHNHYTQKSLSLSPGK
Excerpt: as §1, with “The standard kinetic assay measures binding kinetics of trimeric ligand (e.g., human BAFF, cynomolgus monkey APRIL, mouse BAFF, or mouse APRIL) coated on sensor chips and dimeric analytes (e.g., variant BCMA-Ig fusion proteins) in the mobile phase. […] For” for “For”
as §2, §3

The next assay addresses T6, Variant BAv8-9-Ig (human, UniProt P01859-1 99-326 = IgG part).
T6 construct: domain: Fc; also called Variant 8-9-Ig; BAv8-9-PIg18
Excerpt: as §1, with “The standard kinetic assay measures binding kinetics of trimeric ligand (e.g., human BAFF, cynomolgus monkey APRIL, mouse BAFF, or mouse APRIL) coated on sensor chips and dimeric analytes (e.g., variant BCMA-Ig fusion proteins) in the mobile phase. […] For” for “For”
as §2, §3

Another assay concerns the target T7, Variant BAv11-6-Ig (human, UniProt P01859-1 99-326 = IgG part).
T7 construct: domain: Fc; also called Variant 11-6-Ig; BAv11-6-PIg18
Excerpt: as §1, with “The standard kinetic assay measures binding kinetics of trimeric ligand (e.g., human BAFF, cynomolgus monkey APRIL, mouse BAFF, or mouse APRIL) coated on sensor chips and dimeric analytes (e.g., variant BCMA-Ig fusion proteins) in the mobile phase. […] For” for “For”
as §2, §3

The next assay addresses T8, Variant BAv9-1-Ig (human, UniProt P01859-1 99-326 = IgG part).
T8 construct: domain: Fc; also called Variant 9-1-Ig; BAv9-1-pIg18
Excerpt: as §1, with “The standard kinetic assay measures binding kinetics of trimeric ligand (e.g., human BAFF, cynomolgus monkey APRIL, mouse BAFF, or mouse APRIL) coated on sensor chips and dimeric analytes (e.g., variant BCMA-Ig fusion proteins) in the mobile phase. […] For” for “For”
as §2, §3

The target of assay [3] is T9, Variant 50238475-Ig (human, UniProt P01859-1 99-326 = IgG part).
T9 construct: domain: Fc; also called Parent 9; Variant 50238475-PIg18
T9 sequence (P01859 other isoform, or with tags, fused parts or gaps mutant limits assumed): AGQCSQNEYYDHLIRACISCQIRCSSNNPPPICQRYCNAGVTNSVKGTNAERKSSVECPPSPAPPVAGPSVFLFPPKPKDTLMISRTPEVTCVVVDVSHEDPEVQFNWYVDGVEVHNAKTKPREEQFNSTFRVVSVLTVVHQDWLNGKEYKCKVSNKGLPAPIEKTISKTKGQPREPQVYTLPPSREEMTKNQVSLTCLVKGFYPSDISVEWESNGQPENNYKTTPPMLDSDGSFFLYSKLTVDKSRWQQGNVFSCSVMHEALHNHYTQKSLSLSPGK
Excerpt: as §1, with “The standard kinetic assay measures binding kinetics of trimeric ligand (e.g., human BAFF, cynomolgus monkey APRIL, mouse BAFF, or mouse APRIL) coated on sensor chips and dimeric analytes (e.g., variant BCMA-Ig fusion proteins) in the mobile phase. […] For” for “For”
as §2, §3

Another assay deals with T10, Variant 50237847-Ig (human, UniProt P01859-1 99-326 = IgG part).
T10 construct: domain: Fc; also called Parent 3
T10 sequence (P01859 other isoform, or with tags, fused parts or gaps mutant limits assumed): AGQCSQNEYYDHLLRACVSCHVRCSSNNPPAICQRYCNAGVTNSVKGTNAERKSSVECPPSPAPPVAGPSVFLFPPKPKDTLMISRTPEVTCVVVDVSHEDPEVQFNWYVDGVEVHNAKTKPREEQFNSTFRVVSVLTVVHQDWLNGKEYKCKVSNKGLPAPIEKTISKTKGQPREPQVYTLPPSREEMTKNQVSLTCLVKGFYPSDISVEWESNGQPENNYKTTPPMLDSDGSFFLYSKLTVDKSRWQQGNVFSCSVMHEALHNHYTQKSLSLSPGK

The next assay concerns the target T11, Variant 50240054-Ig (human, UniProt P01859-1 99-326 = IgG part).
T11 construct: domain: Fc; also called Parent 2

A further assay has as its target T12, Variant 50234224-Ig (human, UniProt P01859-1 99-326 = IgG part).
T12 construct: domain: Fc; also called Parent 6

The target in a further assay is T13, Variant 50237844-Ig (human, UniProt P01859-1 99-326 = IgG part).
T13 construct: domain: Fc; also called Parent 7
T13 sequence (P01859 other isoform, or with tags, fused parts or gaps mutant limits assumed): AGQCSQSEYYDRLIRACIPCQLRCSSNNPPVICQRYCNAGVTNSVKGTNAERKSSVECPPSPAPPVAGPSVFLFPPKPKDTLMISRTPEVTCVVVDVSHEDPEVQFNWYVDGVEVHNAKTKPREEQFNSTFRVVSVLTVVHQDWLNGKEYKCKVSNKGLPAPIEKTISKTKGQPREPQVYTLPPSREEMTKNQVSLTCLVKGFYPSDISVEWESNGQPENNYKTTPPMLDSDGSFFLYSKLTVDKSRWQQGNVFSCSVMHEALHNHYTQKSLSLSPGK

A further assay concerns the target T14, Variant 50239978-Ig (human, UniProt P01859-1 99-326 = IgG part).
T14 construct: domain: Fc; also called Parent 12

A further assay deals with T15, Variant 50237854-Ig (human, UniProt P01859-1 99-326 = IgG part).
T15 construct: domain: Fc; also called Parent 4
T15 sequence (P01859 other isoform, or with tags, fused parts or gaps mutant limits assumed): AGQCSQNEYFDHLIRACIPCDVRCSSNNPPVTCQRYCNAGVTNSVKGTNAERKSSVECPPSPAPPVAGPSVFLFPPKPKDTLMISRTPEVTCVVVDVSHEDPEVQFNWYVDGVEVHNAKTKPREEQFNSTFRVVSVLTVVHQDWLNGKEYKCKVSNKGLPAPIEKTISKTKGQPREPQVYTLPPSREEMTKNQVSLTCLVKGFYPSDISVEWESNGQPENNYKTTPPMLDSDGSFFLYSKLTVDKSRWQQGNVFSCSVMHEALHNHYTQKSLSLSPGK

For the next assay, the target named is T16, Variant 50239698-Ig (human, UniProt P01859-1 99-326 = IgG part).
T16 construct: domain: Fc; also called Parent 5
T16 sequence (P01859 other isoform, or with tags, fused parts or gaps mutant limits assumed): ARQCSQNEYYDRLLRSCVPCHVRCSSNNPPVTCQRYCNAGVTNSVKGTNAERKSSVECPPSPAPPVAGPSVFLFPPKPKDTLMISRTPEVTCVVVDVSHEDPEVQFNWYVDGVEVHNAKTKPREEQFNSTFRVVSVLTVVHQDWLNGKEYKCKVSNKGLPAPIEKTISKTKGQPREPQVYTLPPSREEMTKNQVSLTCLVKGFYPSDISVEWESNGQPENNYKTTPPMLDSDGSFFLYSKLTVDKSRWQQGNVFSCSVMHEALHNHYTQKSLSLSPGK

A further assay has as its target T17, Variant 50239040-Ig (human, UniProt P01859-1 99-326 = IgG part).
T17 construct: domain: Fc; also called Parent 10

The next assay concerns the target T18, Variant 50238779-Ig (human, UniProt P01859-1 99-326 = IgG part).
T18 construct: domain: Fc; also called Parent 1

The next assay deals with T19, Variant 50238494-Ig (human, UniProt P01859-1 99-326 = IgG part).
T19 construct: domain: Fc; also called Parent 11
T19 sequence (P01859 other isoform, or with tags, fused parts or gaps mutant limits assumed): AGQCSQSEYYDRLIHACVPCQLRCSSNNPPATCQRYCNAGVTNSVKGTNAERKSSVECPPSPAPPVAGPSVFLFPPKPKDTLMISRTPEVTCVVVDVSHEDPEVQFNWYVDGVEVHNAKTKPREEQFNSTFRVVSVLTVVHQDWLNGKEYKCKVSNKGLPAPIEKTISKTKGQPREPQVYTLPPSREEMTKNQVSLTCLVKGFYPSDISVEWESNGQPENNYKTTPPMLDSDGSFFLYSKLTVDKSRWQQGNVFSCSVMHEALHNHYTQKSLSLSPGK

The next assay addresses T20, Variant 50238504R-Ig (human, UniProt P01859-1 99-326 = IgG part).
T20 construct: domain: Fc; also called Parent 8

Assay [4] has as its target T9, Variant 50238475-Ig. The source holds these as a separate data set.

Like-named read-outs stand apart in the source and are kept apart here.

T1 sequence (P01859 other isoform, or with tags, fused parts or gaps mutant limits assumed): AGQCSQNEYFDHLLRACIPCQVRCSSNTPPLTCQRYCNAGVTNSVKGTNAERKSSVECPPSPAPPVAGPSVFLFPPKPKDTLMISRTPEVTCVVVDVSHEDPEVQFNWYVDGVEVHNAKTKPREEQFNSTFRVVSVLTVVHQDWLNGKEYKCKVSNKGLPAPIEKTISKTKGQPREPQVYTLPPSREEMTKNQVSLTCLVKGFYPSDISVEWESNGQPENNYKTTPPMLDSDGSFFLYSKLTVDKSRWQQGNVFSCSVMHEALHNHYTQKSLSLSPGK
T8 sequence (P01859 other isoform, or with tags, fused parts or gaps mutant limits assumed): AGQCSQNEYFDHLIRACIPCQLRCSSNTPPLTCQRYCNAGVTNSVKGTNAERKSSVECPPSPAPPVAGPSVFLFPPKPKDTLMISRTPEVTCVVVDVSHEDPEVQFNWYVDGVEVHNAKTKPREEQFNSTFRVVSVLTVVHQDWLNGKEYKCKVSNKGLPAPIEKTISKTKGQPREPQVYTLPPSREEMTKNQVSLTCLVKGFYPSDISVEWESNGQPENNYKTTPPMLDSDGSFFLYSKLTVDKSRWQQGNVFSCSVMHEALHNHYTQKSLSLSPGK
T6 sequence (P01859 other isoform, or with tags, fused parts or gaps mutant limits assumed): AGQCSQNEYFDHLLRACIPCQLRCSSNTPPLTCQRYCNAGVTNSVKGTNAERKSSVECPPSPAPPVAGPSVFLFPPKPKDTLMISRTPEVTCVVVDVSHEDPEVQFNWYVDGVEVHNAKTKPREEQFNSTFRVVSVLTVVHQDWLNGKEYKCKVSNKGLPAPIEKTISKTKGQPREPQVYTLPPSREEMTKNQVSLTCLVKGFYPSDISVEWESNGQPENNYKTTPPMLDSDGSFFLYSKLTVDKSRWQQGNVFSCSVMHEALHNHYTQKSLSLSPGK
T2 sequence (P01859 other isoform, or with tags, fused parts or gaps limits assumed): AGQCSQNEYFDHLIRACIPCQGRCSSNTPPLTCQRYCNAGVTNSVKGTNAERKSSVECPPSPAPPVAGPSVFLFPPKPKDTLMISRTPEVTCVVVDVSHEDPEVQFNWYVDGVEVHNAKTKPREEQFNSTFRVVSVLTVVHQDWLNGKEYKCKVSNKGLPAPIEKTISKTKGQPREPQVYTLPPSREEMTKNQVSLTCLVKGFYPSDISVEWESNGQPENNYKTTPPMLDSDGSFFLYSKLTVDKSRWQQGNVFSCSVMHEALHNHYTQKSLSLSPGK
T7 sequence (P01859 other isoform, or with tags, fused parts or gaps mutant limits assumed): as the sequence (P01859 other isoform, or with tags, fused parts or gaps limits assumed) above, with H12R, I14L, G22V counted along it
T11 sequence (P01859 other isoform, or with tags, fused parts or gaps mutant limits assumed): as the sequence (P01859 other isoform, or with tags, fused parts or gaps limits assumed) above, with G2Q, Q6P, H12R, G22L, L31V, A39T counted along it
T17 sequence (P01859 other isoform, or with tags, fused parts or gaps mutant limits assumed): as the sequence (P01859 other isoform, or with tags, fused parts or gaps limits assumed) above, with G2R, Q6P, N7S, F10Y, A16S, I18V, G22L, L31V, N38D counted along it
T18 sequence (P01859 other isoform, or with tags, fused parts or gaps mutant limits assumed): as the sequence (P01859 other isoform, or with tags, fused parts or gaps limits assumed) above, with G2Q, H12R, I14V, R15N, A16S, I18V, Q21R, G22L, T28N, R35H counted along it

B1: FLAG-tagged cynomolgous APRIL (ligand, not shown: small tags and cut ends)
chain: KQKKQHSVLHLVPINATSKDDSDVTEVMWQPALRRGRGLQAQGYGVRIRDAGVYLLYSQVLFQDVTFTMGQVVSREGQGKQETLFRCIRSMPSHPDRAYNSCYSAGVFHLHQGDILSVIIPRARAKLNLSPHGTFLGFVKL
notes: FLAG-tagged, expressed with TPA signal peptide; also called cyAPRIL
B1: the Kd came out at 76 pM with Variant BAv8-10-Ig [1]; 62600 pM with BAv66-Ig; 10.1 pM with Variant BAv1-12-Ig; 28.4 pM with Variant BAv9-5-Ig; 53.9 pM with Variant BAv8-10-Ig [2]; 13.9 pM with Variant BAv3-10-Ig. Besides, the dissociation constant (Kd) came out at 22.6 pM with Variant BAv8-9-Ig; 24.4 pM with Variant BAv11-6-Ig; 21.4 pM in the assay with Variant BAv9-1-Ig; 78.9 pM with Variant 50238475-Ig [3]; 37 pM with Variant 50237847-Ig; 23 pM with Variant 50240054-Ig. The Kd was determined as 39 pM in the assay with Variant 50234224-Ig; 28 pM with Variant 50237844-Ig; 24 pM with Variant 50239978-Ig; 59 pM with Variant 50237854-Ig; 17 pM in the assay with Variant 50239698-Ig; 54 pM with Variant 50239040-Ig. Moreover, the dissociation constant Kd was determined as 28 pM with Variant 50238779-Ig, 12 pM in the assay with Variant 50238494-Ig, 72 pM in the assay with Variant 50238504R-Ig and 42 pM with Variant 50238475-Ig [4].
